These results are taken from the domain aggregation screens of Martell et al. (2025).
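Note: 20 min heating vs room temperature control held 20 min.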

The nature of this series: soluble fraction after stress (log2 fold change); higher = more stays soluble; pooled small domains, quantitative proteomics. The settings on record: stress: 75 degC.
Turning to “HMGMTAPIPGVVLKVSVLPGQKVERGDELLTIEAMKMFNVMRSPSSGTIATVHIKDGDRVVQGQPLVTFA”, the “soluble fraction (log2)” value is -0.555.
In the case of “HMGMTTSILDDVIGMGPKRKKALLKAFGSFGALRNATLEEIKQTHTVPEQVAEDVYAVLVQYNSKSE” it was -0.681; in that of “HMGMVKLNEEYLEKVKKHRKELHITQLQISKKLGWSLSRYQRFESGFYKEIEDDAPKKIKEEFGIDYSLL”, -0.726; in that of “HMGNGALLTLTVKERQVIQLVAEGKSNKQIARDLNVTPETIKSHMKNIFAKLKVDNRAQAAVMVQQ”, -2.16.
In the case of “HMGNGDTNERIATLMQILAKQESIINQYGLENPVVSPQMYVRTLKKVVELSGFKDASSYFADIPDGWKA” it was 0.0405; in that of “HMGNIADARRDASYVFLIGEWAKSSNLTEKKLAGLIQSNHLDIKYGITVTDVIADIRKYKNDPTYNPF”, -2.19.
On to “HMGNIKVPSVMGMTLEGAEKVAKDNGAVIEVLEYKESTEEDGTIIEQSPKADMTVATLEKISVVISGK”, for which the “soluble fraction (log2)” value came out at 0.161.
In the case of “HMGNIYKALLGKLEKQLGFLPEGTKLPPEQELAEKFGVSKPTLRRALAELAVRGIIVKQNGIGSVVAGS” it was -0.55; in that of “HMGNKKLVLKLSKKLIKIPSFLNIYSVKLTKNGRELEINLDKSQNEAIDIINLIKKNNISFLEFDIKKR”, -1.43.
In the case of “HMGNLIIFYDAQTGSAPLLKAVKTSGATLVYEYKNLHGIAIRPSSKTSIEDAIAYFKKVNGVLSVE” it was -3.77; in that of “HMGNPSGLPLPRFASTRSEPINVRVGPGQKYDIAWTYLKSGIPVEIIQEFDTWRKIRDFDGAEGWIHQNLL”, -1.22; in that of “HMGNSRNDQDLQTQIIKILAEGPASSRTLIETLTIEDEAALLKTLKRLLMNKKISLTPSNLYKL”, -1.06.
With “HMGPAAGVVEKYNLAHLSTGEMIRKEIAEGSDFGKMAAGIINKGELLSDEFVVALIENSIEHHKNVDGFLF”, the “soluble fraction (log2)” value is -0.195.
In the case of “HMGPAVGAIRVEGNKRVEPETVRTYLTFNVGDPYDLAKVDESLKALFATGLFQDVRIRREGNTVVIVVVEN” it was -0.701.
In the case of “HMGPAYQTQRQEAFAALSEIAAKNPQLMQVAGDLVFRAADFPMADELADRLAKTLPPQLQDKKGQP” it was -0.455; in that of “HMGPEISEDAKVVFDRLKNHDEILLNNFKSEFDLSNKKWDKIIKELRGNDLISIIKSEDGNLFIKP”, -0.125.
In the case of “HMGPELGENEKLIFDIIKKESKMELGILKAQVDLSNKKWDKALKGLATHGLTKVNKTDDGLFIELI” it was -0.555; in that of “HMGPIITKTYNLSYATARDVNDIIKSKKSARGDIVIDTRTNSLIVSDVQEKIDLIDEIVATL”, -0.368; in that of “HMGPLSDRSVADWLLRLGLADTANNRLLLQVMHAAGLPLERTAVRAMRETAAGRPEGTDAREWLQAAAAAQ”, -0.571.
Consider “HMGPNSVPDLRGKSLRQAMKMVNDLELKAIFEGEGIVVGQVPAPGKPVPETKILKITLSLEPY”, for which the “soluble fraction (log2)” value was -1.58.
In the case of “HMGPPAVGSKLQDARKAQQLSLDELSKRAGVSKSMLSEVERNQANPTVGVLWRLATALGISLTDLLG” it was -1.11; in that of “HMGPPLISLDDGLAKGFGVGVGDTLTINILGRRITATIASLREIDWQSLRFDFAVVLSPGVLEGA”, 0.237; in that of “HMGPRKAGSEATRQKILDAAEILFAERGFHSVSVRDITTEAGVDVALINYHFGSKQLLFETVFMRR”, -0.32.
In the case of “HMGPRPLPAEFTHPSLRALLALGTTRGGVTSADVKTALEAASVPAGRRAAVLRALDDNGIEVHTEP” it was -0.0155; in that of “HMGPSEVTLDNFVGKNYTDVVNDTSYQFTFKKEEKSDQTHAAGIIIAQSPKKGIKVKSNSTVTLTVSTG”, 0.359; in that of “HMGPVDFYQMFISELQHLAEKPVTVDALIESTQLHKSQLTEWLKRAVDDGVVKKLNRPARFQVKNK”, 0.0567.
As for “HMGPVRDLGLLESAAHRPTTALWGRDVYATIEKKAAALLDSLVRDRPLADGNKRLGWLAALV”, the “soluble fraction (log2)” value was 0.291.
In the case of “HMGPYGAGSAAPAEDGSGPEGWTVKGNAKSMLYHTEGSPYYGRTNADVWFRDEESAEAAGFRRWDRK” it was -0.0366; in that of “HMGQAELPYSEFLREVNNGQVKSVIIEGSEITGFYKTSGTSFNVIAPDDPKLVERLMAQGVEVRAQPA”, 0.144; in that of “HMGQDLEAFLLKAVGQLDQGDGVTLDALLKVAVSNGGFVREVAEAKLDDMLDAGTLDEPRFGWFRVGAT”, -0.41.
In the case of “HMGQDLSYYIKIVQNQQPVDPLTGEPKVLDYGEVIRQAQILQMLDTGDLDRDKAIGQLSMKDAL” it was 0.292.
In the case of “HMGQELRFVIQDHEAGIRLDHYLTQQVEGYSRSHLRKLMDQGLITVDGSYRKAGYRLNVGDVIHVVIPPTR” it was -0.813.
For “HMGQELTPVERTALDIAARDGKVSTRILAQEAGIGLRTASKTLAALAERGLLTWHGTSRRDPQQHYTS”, the “soluble fraction (log2)” value was -0.0688.
On to “HMGQISDESVLKEMVVQLIADNPKEVASYLGGKETLLQWFMGQVARATKGKADPQAVKQLLLDEFEKLK”, for which the “soluble fraction (log2)” value stood at 0.0498.
With “HMGQKETIVDLLKTNGTMTQLALAEAIYGDKNHGPNIYSVLMGRVNSGAVLRTGSQPAYYSLSG”, the “soluble fraction (log2)” value was found to be 0.209.
In the case of “HMGQKMLTIELQEKVNKMPDNLASYDLKLSADGMSLIYKYSLKSERTGITALLQELKNAGLVMRDLKTEQ” it was -0.641.
In the case of “HMGQLSDREALTVLAREALVELPRAAGDYRNGRTAALQSLVGRVMRKTAGRGNPALLQEIFRSLL” it was -0.542.
In the case of “HMGQLVVHQIKGEASRLDKFLVVNIPKYSRSVWREMINNGSVQVNGRVVKPHLLVKEGDIITWSS” it was -1.4; in that of “HMGQLVYPAGVYDVNKSYITDSNSAPYVLDKTDNNYYVLNTQMTWKGTEQDNKTPSQSYEESGGSVWLLFD”, -0.118.
Take “HMGQPAVSSRDVAEQFGKEHRNVIQSIKNLIAENSALTFMFIEDTYTAGTGKKYPMYYMNRDGFTLLA”: the “soluble fraction (log2)” value amounted to 0.337.
In the case of “HMGQPGNWTSYVFKNSDTEPAKPTSSGPIPSGWNDAPTGVGIWWMSKATIDASTGKAGSWSTPIRVTGED” it was -0.0861.
In the case of “HMGQSKNERMLELVELLNKASRSYYQDAQEIMSNYEYDRLYDELQNLEKELGITLSNSPTVN” it was -0.122; in that of “HMGQVSDETGLARVVDALLAAHPDEVAKYRAGKTSLLGWFMGQVMKETRGQANPDLARALVLERLE”, -0.342.
In the case of “HMGQYSTTLDKIENSLFGFTYSNEAENTRINRIENKVYGKTSTSQTSTRIAKLKKDLSVDEMG” it was 0.111; in that of “HMGREVVVPNLAGIEKEVALDLLKKNRLGGMITGTRFSSDFPAGQVIQQMPEAGSRVKVGKQVKLVLSEG”, 0.207.
Take “HMGRGSEDEQMRGLAVILAEQKQIMQTLGVENEVVKPEQYINTLKRMAELNGFKDTDQFFSIPQ”: the “soluble fraction (log2)” value stood at 0.26.
In the case of “HMGRHSPLSIEQKEQLKTEIVALQQQRGGGRVTAVNIAELIQQKFNVVYNPNSLYKLLKQIGMSWV” it was -1.94; in that of “HMGRKEIIVPNLLGKYAIEAGTILKNAGLLEGQAREENSDTYPAGQIMDQFPKANTPANENDKVDYVVSI”, at least 1.04.
In the case of “HMGRLEVDLVVPYDKYEAMNVIRAEGRILKEDHQGDGAHLKIQINETALWKLKRMLGEGYGQ” it was -0.13.
As for “HMGRLPMNIVRAIVEHLDRHASYSEINRATGASKGFISKVAAAVEAASLTPEKFLLLNDEDIQNRITPGR”, the “soluble fraction (log2)” value is -0.739.
